Experimental findings from patent US20210069341A1 are described below.

A word on the EC50: it is the midpoint of the concentration-response curve. The low end stands for greater potency, the high end for weaker potency.

The test has as its target FcRn-biotin (UniProt P55899). In words: ELISA.

Chain of FcRn-biotin (P55899 24-297, chain 1 of 2): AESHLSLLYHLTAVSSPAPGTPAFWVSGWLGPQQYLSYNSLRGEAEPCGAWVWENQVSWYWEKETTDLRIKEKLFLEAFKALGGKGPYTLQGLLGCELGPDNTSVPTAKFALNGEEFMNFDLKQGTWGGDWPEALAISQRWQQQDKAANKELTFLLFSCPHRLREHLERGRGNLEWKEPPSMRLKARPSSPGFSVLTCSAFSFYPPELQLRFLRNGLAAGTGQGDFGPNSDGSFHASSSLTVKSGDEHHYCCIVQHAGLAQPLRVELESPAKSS
Chain of FcRn-biotin (main, as listed by the source, chain 2 of 2): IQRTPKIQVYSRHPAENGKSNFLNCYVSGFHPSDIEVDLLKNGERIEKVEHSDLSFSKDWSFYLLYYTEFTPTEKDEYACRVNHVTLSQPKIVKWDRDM

Consider LC-V205C (from UniProt P01834 1-107), for which the EC50 was found to be 315 nM.
